# Test results reported in paper PMC9424733, “Lysine acetylation of Escherichia coli lactate dehydrogenase regulates enzyme activity and lactate synthesis” (Frontiers in Bioengineering and Biotechnology, 2022).
# Molecular target: the molecule itself
# Experiment: SEC; gel filtration analysis of purified LdhA and mutants; retention volumes of the highest peaks compared; column and buffer not told
row,Protein,stoichiometry N
1,"Escherichia coli lactate dehydrogenase (LdhA), wild type (enzyme, UniProt P52643 1-329, looked up, D-lactate dehydrogenase LdhA of Escherichia coli; Partly acetylated on K9, K70, K154 and K248 when grown with 2% glucose (mass spectrometry); also called EcLdhA; NAD-dependent lactate dehydrogenase) MKLAVYSTKQYDKKYLQQVNESFGFELEFFDFLLTEKTAKTANGCEAVCIFVNDDGSRPVLEELKKHGVKYIALRCAGFNNVDLDAAKELGLKVVRVPAYDPEAVAEHAIGMMMTLNRRIHRAYQRTRDANFSLEGLTGFTMYGKTAGVIGTGKIGVAMLRILKGFGMRLLAFDPYPSAAALELGVEYVDLPTLFSESDVISLHCPLTPENYHLLNEAAFEQMKNGVMIVNTSRGALIDSQAAIEALKNQKIGSLGMDVYENERDLFFEDKSNDVIQDDVFRRLSACHNVLFTGHQAFLTAEALTSISQTTLQNLSNLEKGETCPNELV",4
2,"Escherichia coli LdhA (K248R) (enzyme, UniProt P52643 1-329, looked up, D-lactate dehydrogenase LdhA of Escherichia coli with K248R; Same construct as m1 with the point mutation; also called LdhA K248R mutant) MKLAVYSTKQYDKKYLQQVNESFGFELEFFDFLLTEKTAKTANGCEAVCIFVNDDGSRPVLEELKKHGVKYIALRCAGFNNVDLDAAKELGLKVVRVPAYDPEAVAEHAIGMMMTLNRRIHRAYQRTRDANFSLEGLTGFTMYGKTAGVIGTGKIGVAMLRILKGFGMRLLAFDPYPSAAALELGVEYVDLPTLFSESDVISLHCPLTPENYHLLNEAAFEQMKNGVMIVNTSRGALIDSQAAIEALRNQKIGSLGMDVYENERDLFFEDKSNDVIQDDVFRRLSACHNVLFTGHQAFLTAEALTSISQTTLQNLSNLEKGETCPNELV",4
3,"Escherichia coli LdhA (K248Q) (enzyme, UniProt P52643 1-329, looked up, D-lactate dehydrogenase LdhA of Escherichia coli with K248Q (mimics acetyl-lysine); Same construct as m1 with the point mutation; also called LdhA K248Q mutant) MKLAVYSTKQYDKKYLQQVNESFGFELEFFDFLLTEKTAKTANGCEAVCIFVNDDGSRPVLEELKKHGVKYIALRCAGFNNVDLDAAKELGLKVVRVPAYDPEAVAEHAIGMMMTLNRRIHRAYQRTRDANFSLEGLTGFTMYGKTAGVIGTGKIGVAMLRILKGFGMRLLAFDPYPSAAALELGVEYVDLPTLFSESDVISLHCPLTPENYHLLNEAAFEQMKNGVMIVNTSRGALIDSQAAIEALQNQKIGSLGMDVYENERDLFFEDKSNDVIQDDVFRRLSACHNVLFTGHQAFLTAEALTSISQTTLQNLSNLEKGETCPNELV",4
4,"Escherichia coli LdhA (D279N) (enzyme, UniProt P52643 1-329, looked up, D-lactate dehydrogenase LdhA of Escherichia coli with D279N; Same construct as m1 with the point mutation; also called LdhA D279N mutant) MKLAVYSTKQYDKKYLQQVNESFGFELEFFDFLLTEKTAKTANGCEAVCIFVNDDGSRPVLEELKKHGVKYIALRCAGFNNVDLDAAKELGLKVVRVPAYDPEAVAEHAIGMMMTLNRRIHRAYQRTRDANFSLEGLTGFTMYGKTAGVIGTGKIGVAMLRILKGFGMRLLAFDPYPSAAALELGVEYVDLPTLFSESDVISLHCPLTPENYHLLNEAAFEQMKNGVMIVNTSRGALIDSQAAIEALKNQKIGSLGMDVYENERDLFFEDKSNDVIQDNVFRRLSACHNVLFTGHQAFLTAEALTSISQTTLQNLSNLEKGETCPNELV",4
